Source: publication PMC3513319, “The Importance of the Interaction of CheD with CheC and the Chemoreceptors Compared to Its Enzymatic Activity during Chemotaxis in Bacillus subtilis” (PLoS ONE, 2012)

B1: GST-6xHis-CheD (enzyme, Bacillus subtilis, UniProt P40404 1-166, looked up)
chain: MSTTEAVVIKVGIADVKIARFPDTIRTSGLGSCVGLVLYDKEKQTAGLVHVMLPDSTLSKTAELNRAKYADTAVQTTIDMLIEAGCRKFALKAKLAGGSEMFKFKSTNDLMKIGPRNVLAIKEQLSLFNIPIISEDTGGSSGRTIEFEPKSCMLHIRTVKQGEKTI
notes: CheD, chemoreceptor glutamine deamidase, Bacillus subtilis; cheD gene amplified from OI1085 genomic DNA, cloned in pGEX-6P-2; Order of the tags by the printed name GST-6xHis-CheD: the 6xHis lies between GST and CheD; Held on the NTA chip by the 6xHis; also called pWY88 (pGEX-6P-2::6xHis-cheD2); source: E. coli, overexpressed, purified (GSTrap); not shown: GST, N-terminal, kept; 6xHis, N-terminal, …

What was measured:
[1] = target: GST-CheD-F102E (Bacillus subtilis) (UniProt P40404); assay: pull-down; 80 µM GST-CheD or GST-CheD-F102E on glutathione beads; 100 µM CheC or receptor fragment added for 10 min; washed with TBS + 1% Triton X-100; eluted with glutathione; SDS-PAGE, Coomassie stain, densitometry
[2] = target: T1, CheC (Bacillus subtilis, UniProt P40403 1-209); assay: SPR; as a1, but with 20 µM CheY in the running buffer and in the injected CheC; details: both partners purified
T1 construct: CheC, CheY-P phosphatase, Bacillus subtilis; also called pTM18 (pGEX-6P-2::cheC2); source: E. coli, overexpressed as GST-CheC, purified (GSTrap), GST removed with PreScission protease; not shown: GST, N-terminal, cleaved
T1 sequence (looked up): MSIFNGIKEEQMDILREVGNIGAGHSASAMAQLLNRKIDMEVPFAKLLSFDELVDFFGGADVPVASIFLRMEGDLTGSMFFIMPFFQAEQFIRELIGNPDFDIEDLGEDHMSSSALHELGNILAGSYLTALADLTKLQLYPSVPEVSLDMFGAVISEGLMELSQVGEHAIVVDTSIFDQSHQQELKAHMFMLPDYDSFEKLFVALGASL

[3] = target: T1, CheC; assay: SPR; Biacore 3000, NTA chip; 500 RU of GST-6xHis-CheD immobilised; CheC injected at different concentrations (80 µl, 20 µl/min); running buffer TKMD (50 mM Tris pH 8.0, 50 mM KCl, 5 mM MgCl2, 0.1 mM DTT); triplicate; details: both partners purified
[4] = target: T1, CheC; assay: SPR; as a1, but with 20 µM CheY and 5 mM acetyl phosphate (CheYp) in the running buffer and in the injected CheC; details: both partners purified

| Molecule | percent of the CheC bound by GST-CheD [1] | Kd [2] | koff [2] | kon [2] | Kd [3] | koff [3] | kon [3] | Kd [4] | koff [4] | kon [4] |
| --- | --- | --- | --- | --- | --- | --- | --- | --- | --- | --- |
| CheC (from UniProt P40403 1-209) (enzyme) | 10% | – | – | – | – | – | – | – | – | – |
| B1 | – | 7.01 µM | 0.0743 s⁻¹ | 10600 M⁻¹ s⁻¹ | 3.95 µM | 0.0568 s⁻¹ | 14700 M⁻¹ s⁻¹ | 0.546 µM | 0.0976 s⁻¹ | 179000 M⁻¹ s⁻¹ |
